Measured values: publication PMC6598382

How the values were obtained:
[1] = substrate: C/C=C/C=C/C(=O)c1cc(C)c(O)c(C)c1O; assay: steady-state Michaelis-Menten kinetics; type: biochemical, Penicillium rubens; conditions: native substrate
[2] = substrate: C/C=C/COC(=O)c1cc(C)c(O)c(C)c1O; assay: steady-state Michaelis-Menten kinetics; type: biochemical, Penicillium rubens

B1: SorbC (Penicillium rubens Wisconsin 54-1255) (protein)
chain: MTRSANSPFEVAIVGGGITGLALAVGLLKRNVSFTIYERAENFGELGVGITFTPNAQRAMEALDPCVLQSFTNVASAPSGGTINFVDGVREQGSEDPRTSTAALLFQLHVKGGYKACRRCDFVDQIVQHIPKDCVQYRKWLDSIETDHESGRAVLKFRDGEIAHADVVIGCDGIRSQVRASMFGTDELCPRAQYSHQLGYRGMVPLAQATAVLGPEKTSSAVLHTGPGAFVLTIPLAEVHAMHIEAFIMDKEEWPEVQTSSDSKRYVLPATRNEATKAFAEFGPTVRSAVSMFPEKLEKWAVFDMLEAPVPTFAKGRVCLAGDAAHASTPNQGGGAGFGIEDALVLAEVLAVLAEAPNVSGIVASEALAVYSEVRYERSQWLVRSSRRTGELCTWKDRDWGLAAEELSRDIISRSHQLWDHDTAGMVSDALAILGERVRGADTAF
Km [1]: 38.6 ± 1.7 µM
Km [2]: 17.3 ± 0.7 µM
